Results on six molecules are retold here after US20220185894A1 (F STAR THERAPEUTICS, published 2022).

Assay [1] deals with T1, mouse LAG-3 expressed on cells (mouse, UniProt Q61790 24-521).
T1 construct: also called mLAG-3; murine LAG-3 HEK
T1 sequence: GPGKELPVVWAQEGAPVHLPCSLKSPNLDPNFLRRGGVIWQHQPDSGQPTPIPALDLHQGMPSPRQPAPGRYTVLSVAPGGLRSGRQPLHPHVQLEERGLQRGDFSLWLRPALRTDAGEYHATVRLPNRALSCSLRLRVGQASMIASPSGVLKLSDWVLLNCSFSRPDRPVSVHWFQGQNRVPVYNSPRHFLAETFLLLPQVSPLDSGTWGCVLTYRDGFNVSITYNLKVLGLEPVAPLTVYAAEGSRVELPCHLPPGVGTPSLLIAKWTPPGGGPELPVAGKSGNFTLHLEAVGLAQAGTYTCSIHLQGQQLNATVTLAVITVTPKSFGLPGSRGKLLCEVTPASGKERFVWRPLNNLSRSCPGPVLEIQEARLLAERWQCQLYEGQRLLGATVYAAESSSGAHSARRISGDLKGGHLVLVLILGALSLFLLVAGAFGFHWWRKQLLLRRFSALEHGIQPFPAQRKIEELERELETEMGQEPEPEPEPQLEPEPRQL
Nature of the assay: flow cytometry on HEK cells expressing mouse LAG-3. The procedure:
The plates were centrifuged at 1500 rpm for 3 min at 4° C. to pellet the cells. […] (plates were kept in the dark). […] The plates were read using Canto II flow cytometer (BD Bioscience). Dead cells were excluded and the fluorescence in the FITC channel (488 nm/530/30) was measured. The data was fit using log (agonist) vs response in GraphPad Prism Software.
On the technique in general: A flow cytometer gives signals particle by particle.

The target in assay [2] is T2, mouse LAG-3 Fc (R&D Systems, 3328-L3-050) (mouse, UniProt Q61790 24-442).
T2 construct: Bought protein; also called mLAG-3 Fc; murine LAG-3Fc; not shown: Fc tag of the bought fusion protein
T2 sequence: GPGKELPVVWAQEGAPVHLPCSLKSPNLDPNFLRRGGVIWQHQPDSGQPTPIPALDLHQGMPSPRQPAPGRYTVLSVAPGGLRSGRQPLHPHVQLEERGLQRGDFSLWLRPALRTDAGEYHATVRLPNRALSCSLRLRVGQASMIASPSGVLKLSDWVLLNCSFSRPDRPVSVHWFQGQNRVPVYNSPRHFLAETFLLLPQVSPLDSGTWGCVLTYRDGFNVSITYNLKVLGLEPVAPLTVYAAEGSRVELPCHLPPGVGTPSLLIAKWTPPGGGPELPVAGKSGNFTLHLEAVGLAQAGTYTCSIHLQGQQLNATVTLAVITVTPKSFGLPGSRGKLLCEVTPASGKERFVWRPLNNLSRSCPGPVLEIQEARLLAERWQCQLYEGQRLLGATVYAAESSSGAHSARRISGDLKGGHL
Nature of the assay: SPR, Biacore 3000; mLAG-3 Fc immobilised, Fcab injected. As for the experimental part: A Biacore 3000 (GE Healthcare) was used to measure the affinity of the surrogate Fcabs specific for mouse LAG-3 to mouse LAG-3. […] Fcabs were diluted in HBS-P buffer (GE Healthcare, BR-1003-68) and injected at various concentrations (fourfold dilutions from 100 nM) for 3 min at 20 μl/min and then allowed to dissociate in buffer for 12 min. The chip was regenerated by injection of 10 mM glycine pH 2.5 for 30 s at 30 μl/min. Data was double reference subtracted and analyzed using BIAevaluation 3.2 software to calculate kinetic constants.
(Surface plasmon resonance follows binding to a sensor surface in real time, without labels.)

Assay [3] has as its target T1, mouse LAG-3 expressed on cells. Nature of the assay: flow cytometry on HEK cells expressing mouse LAG-3. As for the experimental part: HEK cells expressing mLAG-3 grown in DMEM (Life Technologies, 61965-026) containing 10% FBS (Life Technologies, 10270-1-6), 100 μg/ml Hygromycin B (Melford Laboratories Ltd, Z2475), 15 μg/ml Blasticidin (Melford Laboratories Ltd, B1105) and 1 μg/ml Doxycyclin (Sigma, D9891) were detached from tissue culture flasks using cell dissociation buffer (Life Technologies, 13151-014). Cells were collected by centrifuged at 1500 rpm for 3 min at 4° C. to pellet the cells and then resuspended in 1×DPBS then seeded in V-bottom 96-well plates (Costar, 3897) at 1.2×10⁵ cells/well in 30 μl. A 1:1 volume of a dilution series of the mAb² (or control mAb) was added and incubated with the cells for 1 h at 4° C. The plates were washed and secondary antibody (Anti-human Fc-488, Jackson ImmunoResearch, 109-546-098) was diluted 1:1000 in PBS and 60 μl was added to the cells for 30 min at 4° C. (plates were kept in the dark). The plates were then washed and the cells resuspended in 60 μl PBS containing 1 μg/ml DAPI (Biotium, 40043). The plates were read using Canto II flow cytometer (BD Bioscience). Dead cells were excluded and the fluorescence in the FITC channel (488 nm/530/30) was measured. The data was fitted using log (agonist) vs response in GraphPad Prism Software.
This is another data set of the same source.

In assay [4] the target is T2, mouse LAG-3 Fc (R&D Systems, …). The experiment in a line: flow cytometry; inhibition of mouse LAG-3 Fc binding to MHC class II on A375 cells. The procedure: (§1) The plates were centrifuged at 1500 rpm for 3 min at 4° C. to pellet the cells. […] LAG-3/Fcab mix was added to the A375 cells and incubated for 1 h at 4° C. Cells were washed. Secondary antibody (Alexa Fluor 488 conjugated goat anti-human Fc F(ab′)₂, Jackson Immunoresearch, 109-546-098 or Goat anti-mouse IgG (H+L) 488 conjugate, Life Technologies, A-1101) was diluted 1:1000 in PBS and 100 μl was added to the cells for 30 min at 4° C. (plates were kept in the dark). Cells were washed once in PBS and resuspended in 100 μl PBS+1 μg/ml DAPI (Biotium, 40043). The plates were read on a BD FACSCanto II cytometer (BD Biosciences) and the data analysed using FlowJo software.

The target in assay [5] is T3, recombinant Fc-tagged human LAG-3 (R&D Systems, 2319-L3-050) (human, UniProt P18627 23-450).
T3 construct: Bought protein; also called LAG-3 Fc; human LAG-3-Fc; not shown: Fc tag of the bought fusion protein
T3 sequence: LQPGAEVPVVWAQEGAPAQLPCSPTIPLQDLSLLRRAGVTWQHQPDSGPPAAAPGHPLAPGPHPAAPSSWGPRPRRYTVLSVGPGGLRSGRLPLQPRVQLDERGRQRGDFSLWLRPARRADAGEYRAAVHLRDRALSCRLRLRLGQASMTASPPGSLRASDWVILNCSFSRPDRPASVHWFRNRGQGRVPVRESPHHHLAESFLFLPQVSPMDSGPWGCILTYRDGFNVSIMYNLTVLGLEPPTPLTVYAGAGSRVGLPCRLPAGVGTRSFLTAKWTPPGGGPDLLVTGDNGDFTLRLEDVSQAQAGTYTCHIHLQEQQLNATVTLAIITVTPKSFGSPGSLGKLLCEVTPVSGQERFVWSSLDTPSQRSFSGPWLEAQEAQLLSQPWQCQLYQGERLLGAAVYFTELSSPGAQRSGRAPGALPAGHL
The experiment in a line: flow cytometry; inhibition of human LAG-3 Fc binding to MHC class II on A375 cells. As for the experimental part: as §1

The target of assay [6] is T4, murine PD-L1 expressed on cells (mouse, UniProt Q9EP73 19-290).
T4 construct: also called murine PD-L1 HEK
T4 sequence (Q9EP73 19-290 limits assumed): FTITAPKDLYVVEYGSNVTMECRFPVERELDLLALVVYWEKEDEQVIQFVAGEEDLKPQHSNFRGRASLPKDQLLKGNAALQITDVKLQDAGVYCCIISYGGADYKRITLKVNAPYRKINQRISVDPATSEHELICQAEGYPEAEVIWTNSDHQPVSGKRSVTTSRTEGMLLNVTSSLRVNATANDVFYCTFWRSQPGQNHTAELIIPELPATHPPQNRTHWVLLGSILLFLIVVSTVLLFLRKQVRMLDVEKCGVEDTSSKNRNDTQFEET
The experiment in a line: flow cytometry on HEK cells expressing murine PD-L1. As for the experimental part:
The affinity of the mAb² (all containing the LALA mutations) binding to cell expressed murine LAG-3 or murine PD-L1 was determined using flow cytometry. HEK cells expressing murine LAG-3 or murine PD-L1 grown in DMEM (Life Technologies, 61965-026) containing 10% FBS (Life Technologies, 10270-1-6), 100 μg/ml Hygromycin B (Melford Laboratories Ltd, Z2475), 15 μg/ml Blasticidin (Melford Laboratories Ltd, B1105) and 1 μg/ml Doxycyclin (Sigma, D9891) were detached from tissue culture flasks using cell dissociation buffer (Life Technologies, 13151-014) and seeded in V-bottom 96-well plates (Costar, 3897) at 2×10⁵ cells/well. The plates were centrifuged at 1500 rpm for 3 min at 4° C. to pellet the cells. A dilution series of the mAb² (or control mAb) were incubated with the cells in a 60 μl volume for 1 h at 4° C. The plates were washed and secondary antibody (Anti-human Fc-488, Jackson ImmunoResearch, 109-546-098 for mAb² or Anti-Rat IgG (H+L), Alexa Fluor 488, ThermoFisher, A-11006 for anti-LAG-3 control, C9B7W) was diluted 1:1000 in PBS and 50 μl was added to the cells for 30 min at 4° C. (plates were kept in the dark). […] The plates were read using Canto II flow cytometer (BD Bioscience). Dead cells were excluded and the fluorescence in the FITC channel (488 nm/530/30) was measured. […] The plates were read on a BD FACSCanto II cytometer (BD Biosciences) and the data analysed using FlowJo.

Assay [7] deals with T1, mouse LAG-3 expressed on cells. Nature of the assay: flow cytometry on HEK cells expressing murine LAG-3. As for the experimental part: The affinity of the mAb² (all containing the LALA mutations) binding to cell expressed murine LAG-3 or murine PD-L1 was determined using flow cytometry. HEK cells expressing murine LAG-3 or murine PD-L1 grown in DMEM (Life Technologies, 61965-026) containing 10% FBS (Life Technologies, 10270-1-6), 100 μg/ml Hygromycin B (Melford Laboratories Ltd, Z2475), 15 μg/ml Blasticidin (Melford Laboratories Ltd, B1105) and 1 μg/ml Doxycyclin (Sigma, D9891) were detached from tissue culture flasks using cell dissociation buffer (Life Technologies, 13151-014) and seeded in V-bottom 96-well plates (Costar, 3897) at 2×10⁵ cells/well. The plates were centrifuged at 1500 rpm for 3 min at 4° C. to pellet the cells. A dilution series of the mAb² (or control mAb) were incubated with the cells in a 60 μl volume for 1 h at 4° C. The plates were washed and secondary antibody (Anti-human Fc-488, Jackson ImmunoResearch, 109-546-098 for mAb² or Anti-Rat IgG (H+L), Alexa Fluor 488, ThermoFisher, A-11006 for anti-LAG-3 control, C9B7W) was diluted 1:1000 in PBS and 50 μl was added to the cells for 30 min at 4° C. (plates were kept in the dark). The plates were washed then cells were resuspended in 50 μl FACS Cell Fix (BD Bioscience, 340181) for 15 minutes, then washed and resuspended in 100 μl PBS containing 1 μg/ml DAPI (Biotium, 40043). The plates were read using Canto II flow cytometer (BD Bioscience). Dead cells were excluded and the fluorescence in the FITC channel (488 nm/530/30) was measured. The data was fit using log (agonist) vs response in GraphPad Prism Software. The plates were read on a BD FACSCanto II cytometer (BD Biosciences) and the data analysed using FlowJo.

B1: anti-mouse LAG-3 Fcab FS18-7-108-29 (designed binder)
chain: TCPPCPAPELLGGPSVFLFPPKPKDTLMISRTPEVTCVVVDVSHEDPEVKFNWYVDGVEVHNAKTKPREEQYNSTYRVVSVLTVLHQDWLNGKEYKCKVSNKALPAPIEKTISKAKGQPREPQVYTLPPSWDEPWGEDVSLTCLVKGFYPSDIVVEWESNGQPENNYKTTPPVLDSDGSFFLYSKLTVPFERWMWPDEFSCSVMHEALHNHYTQKSLSLSPG
notes: Fcab (truncated hinge, CH2, CH3)
With B1, the results for the EC50 in assay [1] and in assay [3] were 4.5 nM and 2.6 nM, respectively. Also, in assay [2], the Kd (commonly the concentration at which binding is half-saturated) came out at 1.5 nM. Moreover, in assay [4], the IC50 (as a rule, the midpoint of a concentration-inhibition curve) came to 0.6 nM.

B2: anti-human LAG-3 Fcab FS18-7-33 (designed binder)
chain: TCPPCPAPELLGGPSVFLFPPKPKDTLMISRTPEVTCVVVDVSHEDPEVKFNWYVDGVEVHNAKTKPREEQYNSTYRVVSVLTVLHQDWLNGKEYKCKVSNKALPAPIEKTISKAKGQPREPQVYTLPPSWDEPWGEDVSLTCLVKGFYPSDIAVEWESNGQPEDNYKTTPPVLDSDGSFFLYSKLTVPYDRWVWPDEFSCSVMHEALHNHYTQKSLSLSPG
In the case of B2, in assay [5], the IC50 is 2.6 nM.

B3: anti-human LAG-3 Fcab FS18-7-78 (designed binder)
chain: TCPPCPAPELLGGPSVFLFPPKPKDTLMISRTPEVTCVVVDVSHEDPEVKFNWYVDGVEVHNAKTKPREEQYNSTYRVVSVLTVLHQDWLNGKEYKCKVSNKALPAPIEKTISKAKGQPREPQVYTLPPSWDEPWGEDVSLTCLVKGFYPSDIAVEWESNGYKEENYKTTPPVLDSDGSFFLYSKLTVPYDRWVWPDEFSCSVMHEALHNHYTQKSLSLSPG
Take B3: the IC50 in assay [5] was found to be 2.4 nM.

B4: anti-mouse LAG-3 Fcab FS18-7-108-35 (designed binder)
chain: TCPPCPAPELLGGPSVFLFPPKPKDTLMISRTPEVTCVVVDVSHEDPEVKFNWYVDGVEVHNAKTKPREEQYNSTYRVVSVLTVLHQDWLNGKEYKCKVSNKALPAPIEKTISKAKGQPREPQVYTLPPSWDEPWGEDVSLTCLVKGFYPSDISVEWESNGQPENNYKTTPPVLDSDGSFFLYSKLTVPFERWMWPDEFSCSVMHEALHNHYTQKSLSLSPG
notes: as for B1
As to B4, the EC50 – broadly, the concentration at which the effect is half-maximal – in assay [1] worked out at 4.5 nM. The molecule also returned a dissociation constant Kd in assay [2] of 2.1 nM. For the same molecule, in assay [4], the IC50 was determined as 0.7 nM.

B5: anti-mouse LAG-3/PD-L1 mAb2 FS18-7-108-29/S1 with LALA mutation (bispecific antibody)
heavy: not shown
light: DIQMTQSPSSLSASVGDRVTITCRASQDVSTAVAWYQQKPGKAPKLLIYSASFLYSGVPSRFSGSGSGTDFTLTISSLQPEDFATYYCQQYLFTPPTFGQGTKVEIKRTVAAPSVFIFPPSDEQLKSGTASVVCLLNNFYPREAKVQWKVDNALQSGNSQESVTEQDSKDSTYSLSSTLTLSKADYEKHKVYACEVTHQGLSSPVTKSFNRGEC
notes: also called FS18-29/S1
Turning to B5, the EC50 in assay [6] came to 11.9 nM; in assay [7], 2.27 nM.

B6: anti-mouse LAG-3/PD-L1 mAb2 FS18-7-108-35/S1 with LALA mutation (bispecific antibody)
heavy: not shown
light: DIQMTQSPSSLSASVGDRVTITCRASQDVSTAVAWYQQKPGKAPKLLIYSASFLYSGVPSRFSGSGSGTDFTLTISSLQPEDFATYYCQQYLFTPPTFGQGTKVEIKRTVAAPSVFIFPPSDEQLKSGTASVVCLLNNFYPREAKVQWKVDNALQSGNSQESVTEQDSKDSTYSLSSTLTLSKADYEKHKVYACEVTHQGLSSPVTKSFNRGEC
notes: also called FS18-35/S1
Take B6: the EC50 is 12.3 nM in assay [6] and 3.84 nM in assay [7].
